Experimental data as given in the supplement of paper PMC11246515.
± gives the standard deviation of the averaged measurements.

Assay: total protein half-life in vivo (active degradation + dilution); higher = more stable protein
[1] = wild type E. coli NCM3722, growth: C-lim chemostat, doubling time 3 h
[2] = wild type E. coli NCM3722, growth: C-lim chemostat, doubling time 6 h
[3] = wild type E. coli NCM3722, growth: C-lim chemostat, doubling time 12 h
[4] = E. coli NCM3722 delta-clpP delta-lon delta-hslV, growth: N-lim chemostat, doubling time 6 h
[5] = E. coli NCM3722 delta-clpP, growth: N-lim chemostat, doubling time 6 h
[6] = E. coli NCM3722 delta-hslV, growth: N-lim chemostat, doubling time 6 h
[7] = E. coli NCM3722 delta-lon, growth: N-lim chemostat, doubling time 6 h
[8] = E. coli NCM3722 delta-smpB, growth: N-lim chemostat, doubling time 6 h
[9] = wild type E. coli NCM3722, growth: N-lim chemostat, doubling time 6 h
[10] = wild type E. coli NCM3722, growth: N-lim chemostat, doubling time 12 h
[11] = wild type E. coli NCM3722, growth: P-lim chemostat, doubling time 6 h
[12] = wild type E. coli NCM3722, growth: P-lim chemostat, doubling time 12 h

Row | Sequence | total protein half-life in vivo [1] [h] | total protein half-life in vivo [2] [h] | total protein half-life in vivo [3] [h] | total protein half-life in vivo [4] [h] | total protein half-life in vivo [5] [h] | total protein half-life in vivo [6] [h] | total protein half-life in vivo [7] [h] | total protein half-life in vivo [8] [h] | total protein half-life in vivo [9] [h] | total protein half-life in vivo [10] [h] | total protein half-life in vivo [11] [h] | total protein half-life in vivo [12] [h]
1 | MKKLALILFMGTLVSFYADAGRKPCSGSKGGISHCTAGGKFVCNDGSISASKKTCTN [P0ACW4] | 0.862 | 4.49 | 4.67 | – | – | – | – | – | – | – | – | –
2 | MKKLITANDIREAHARGEQAMSVVLRASIITPEAREVADLLGFTITECDESIPVTASVPASVPADKTESQRIRETIIAQLPEGQFTESLVAQLMEKVMKEKQSLEQGAMQPSFKSVTGKGGIKVIDGSSVKFGRFDGAEPHCVGLTDLVTGDDGSSMAAGFMQWENAFFPWTLNYDEIDMVLEGELHVRHEGQTMIAKAGDVMFIPKGSSIEFGTTSSVKFLYVAWPANWQSL | 2.12 ± 0.14 | 4.18 ± 0.51 | 5.42 ± 1.1 | 5.08 ± 0.37 | 1.62 | 1.44 ± 0.19 | 2.42 ± 0.052 | 1.55 ± 0.36 | 1.84 | 2.19 | 2.44 | 3.93
3 | MKKLKLHGFNNLTKSLSFCIYDICYAKTAEERDGYIAYIDELYNANRLTEILSETCSIIGANILNIARQDYEPQGASVTILVSEEPVDPKLIDKTEHPGPLPETVVAHLDKSHICVHTYPESHPEGGLCTFRADIEVSTCGVISPLKALNYLIHQLESDIVTIDYRVRGFTRDINGMKHFIDHEINSIQNFMSDDMKALYDMVDVNVYQENIFHTKMLLKEFDLKHYMFHTKPEDLTDSERQEITAALWKEMREIYYGRNMPAV [P0A7F6] | 2.8 ± 0.15 | 4.99 | 9.17 ± 0.37 | – | 4.12 ± 0.42 | 3.29 ± 0.22 | 3.67 ± 0.29 | 3.3 ± 0.2 | 2.928 ± 0.015 | 4.17 ± 0.036 | 4.78 ± 0.48 | 7.61 ± 1.4
4 | MKKLLRLFFPLSLRVRFLLATAAVVLVLSLAYGMVALIGYSVSFDKTTFRLLRGESNLFYTLAKWENNKLHVELPENIDKQSPTMTLIYDENGQLLWAQRDVPWLMKMIQPDWLKSNGFHEIEADVNDTSLLLSGDHSIQQQLQEVREDDDDAEMTHSVAVNVYPATSRMPKLTIVVVDTIPVELKSSYMVWSWFIYVLSANLLLVIPLLWVAAWWSLRPIEALAKEVRELEEHNRELLNPATTRELTSLVRNLNRLLKSERERYDKYRTTLTDLTHSLKTPLAVLQSTLRSLRSEKMSVSDAEPVMLEQISRISQQIGYYLHRASMRGGTLLSRELHPVAPLLDNLTSALNKVYQRKGVNISLDISPEISFVGEQNDFVEVMGNVLDNACKYCLEFVEISARQTDEHLYIVVEDDGPGIPLSKREVIFDRGQRVDTLRPGQGVGLAVAREITEQYEGKIVAGESMLGGARMEVIFGRQHSAPKDE | 3.26 ± 0.4 | 5.936 ± 0.044 | 10.2 ± 1.2 | 7.01 ± 1.1 | 6.22 ± 0.32 | 5.85 ± 0.59 | 6.87 ± 1.1 | 6.02 ± 0.93 | 6.046 ± 0.045 | 12.5 ± 0.13 | 6.36 ± 0.37 | 13.5 ± 1.9
5 | MKKMLLATALALLITGCAQQTFTVQNKQTAVAPKETITHHFFVSGIGQKKTVDAAKICGGAENVVKTETQQTFVNGLLGFITLGIYTPLEARVYCSK | 3.42 ± 0.22 | – | 9.62 ± 2.6 | 6.1 ± 0.25 | 6.87 | 6.21 | – | 6.05 ± 0.44 | 6.71 ± 0.74 | 12.4 ± 0.78 | 6.65 ± 0.69 | 14.7 ± 0.54
6 | MKKMMIATLAAASVLLAVANQAXAGATLDAVQKKGFVQCGISDGLPGFSYADADGKFSGIDVDICRGVAAAVFGDDTKVKYTPLTAKERFTALQSGEVDLLSRNTTWTSSRDAGMGMAFTGVTYYDGIGFLTHDKAGLKSAKELDGATVCIQAGTDTELNVADYFKANNMKYTPVTFDRSDESAKALESGRCDTLASDQSQLYALRIKLSNPAEWIVLPEVISKEPLGPVVRRGDDEWFSIVRWTLFAMLNAEEMGINSQNVDEKAANPATPDMAHLLGKEGDYGKDLKLDNKWAYNIIKQVGNYSEIFERNVGSESPLKIKRGQNNLWNNGGIQYAPPVR | – | – | – | 4.74 ± 0.45 | – | – | – | – | – | – | – | –
7 | MKKNQFLKESDVTAESVFFMKRRQVLKALGISATALSLPHAAHADLLSWFKGNDRPPAPAGKALEFSKPAAWQNNLPLTPADKVSGYNNFYEFGLDKADPAANAGSLKTDPWTLKISGEVAKPLTLDHDDLTRRFPLEERIYRMRCVEAWSMVVPWIGFPLHKLLALAEPTSNAKYVAFETIYAPEQMPGQQDRFIGGGLKYPYVEGLRLDEAMHPLTLMTVGVYGKALPPQNGAPVRLIVPWKYGFKGIKSIVSIKLTRERPPTTWNLAAPDEYGFYANVNPYVDHPRWSQATERFIGSGGILDVQRQPTLLFNGYAAQVASLYRGLDLRENF | 2.98 ± 0.034 | 5.58 ± 0.24 | 8.4 ± 0.38 | 4.835 ± 0.0049 | 5.46 ± 0.24 | 5.75 ± 0.17 | 5.98 ± 0.35 | 5.33 ± 0.3 | 5.79 ± 0.18 | 11.9 ± 0.43 | 5.91 ± 0.19 | 11.9 ± 0.57
8 | MKKNRAFLKWAGGKYPLLDDIKRHLPKGECLVEPFVGAGSVFLNTDFSRYILADINSDLISLYNIVKMRTDEYVQAARELFVPETNCAEVYYQFREEFNKSQDPFRRAVLFLYLNRYGYNGLCRYNLRGEFNVPFGRYKKPYFPEAELYHFAEKAQNAFFYCESYADSMARADDASVVYCDPPYAPLSATANFTAYHTNSFTLEQQAHLAEIAEGLVERHIPVLISNHDTMLTREWYQRAKLHVVKVRRSISSNGGTRKKVDELLALYKPGVVSPAKK [P0AEE8] | 2.94 ± 0.05 | 5.65 ± 0.72 | 10.2 ± 0.14 | 5.89 ± 0.51 | 4.15 ± 0.098 | 5.84 ± 0.34 | 4.29 ± 2.2 | 4.51 ± 0.34 | 4.65 ± 0.55 | 10.1 ± 0.92 | 5.39 ± 0.27 | 10.9 ± 0.14
9 | MKKSTLALVVMGIVASASVQAAEIYNKDGNKLDVYGKVKAMHYMSDNASKDGDQSYIRFGFKGETQINDQLTGYGRWEAEFAGNKAESDTAQQKTRLAFAGLKYKDLGSFDYGRNLGALYDVEAWTDMFPEFGGDSSAQTDNFMTKRASGLATYRNTDFFGVIDGLNLTLQYQGKNENRDVKKQNGDGFGTSLTYDFGGSDFAISGAYTNSDRTNEQNLQSRGTGKRAEAWATGLKYDANNIYLATFYSETRKMTPITGGFANKTQNFEAVAQYQFDFGLRPSLGYVLSKGKDIEGIGDEDLVNYIDVGATYYFNKNMSAFVDYKINQLDSDNKLNINNDDIVAVGMTYQF | – | 5.98 ± 0.22 | 12.6 ± 1.1 | 6.3 | > 8 | 6.65 ± 0.12 | – | 6.18 ± 0.13 | – | 11 ± 2.1 | 6.41 ± 0.31 | 13.9 ± 1.1
